In US20140315986, “APTAMERS THAT BIND TO IL-6 AND THEIR USE IN TREATING OR DIAGNOSING IL-6 MEDIATED CONDITIONS” (Otsuka Pharmaceutical Co., Ltd., published 2014):

Target: IL-6 (mature human interleukin-6) (Homo sapiens, UniProt P05231 SEQ:1-184)
Assay: cell_activity
Conditions: tags: untagged, R&D Systems; biotinylated with NHS-PEO4-biotin for SELEX

IL-6 (mature human interleukin-6), sequence (P05231 29-212): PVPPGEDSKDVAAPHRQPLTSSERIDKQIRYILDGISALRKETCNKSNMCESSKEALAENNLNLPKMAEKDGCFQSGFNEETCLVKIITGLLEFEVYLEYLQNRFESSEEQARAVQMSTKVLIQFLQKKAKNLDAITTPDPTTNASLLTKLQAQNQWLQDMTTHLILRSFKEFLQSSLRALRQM

B1: 2574-49_411 (ssDNA)
DNA: GGGUUAUGUAGCGUGCGUAAGGCGGU
modifications: G-G1-G-Nap1-Nap2-A2-Nap2-G-Nap1-A2-G1-C1-C3-C3-G1-U1-G1-C2-G2-Nap1-A2-A2-G2-G1-C2-G1-G1-Nap1 (1=2'-OMe, 2=PS)
IC50: 5.8 nM

B2: 2574-49_338 (ssDNA)
DNA: GGGUUAUGUAGCGUGCGUAAGGCGGU
modifications: G-G1-G-Nap1-Nap2-A-Nap-G-Nap1-A-G-C-C3-C3-G1-U1-G1-C-G-Nap1-A-A-G-G-C-G1-G1-Nap1 (1=2'-OMe, 2=PS)
IC50: 0.02 nM

B3: 2574-49_326 (ssDNA)
DNA: GGGUUAUGUAGCGUGCGUAAGGCGGU
modifications: G-G1-G-Nap1-Nap-A-Nap-G-Nap1-A-G-C-C3-C3-G-U1-G1-C-G-Nap1-A-A-G-G-C-G1-G1-Nap1 (1=2'-OMe)
IC50: 0.11 nM

B4: 2573-20_780 (ssDNA)
DNA: GGCAGGUUUGGUAUUAACACGUUAAGUCGUGG
modifications: G-G-C1-A-G-G1-Bn-Bn-Pe2-G-G-Nap-A-Bn-Bn-A1-A-C-A1-C1-G-Bn-Bn2-A-A-G-Bn-C1-G-Bn2-G-G (1=2'-OMe, 2=PS)
IC50: 0.087 nM
